Consider four substances from article PMC10948360.

For orientation: stoichiometry N means the number of molecules, sites or subunits per partner or assembly.

For data set [1], the target named is Full-length kinesin heavy chain (Khc FL), unlabeled (Drosophila) (UniProt P17210). In words: mass photometry; coexpressed, copurified Khc–Tm1 complex at 20 nM in PBS.
In data set [2] the target is SNAP-tagged full-length kinesin heavy chain (Khc FL), Alexa Fluor 647-labeled (Drosophila) (UniProt P17210). In words: single-molecule TIRF colocalisation and motility assay on microtubules; Khc RNP mixes assembled at 500 nM of each component, diluted to 6.25 nM in BRB12 with 2.5 mM MgATP; taxol-stabilized microtubules immobilized by biotin-streptavidin; Cy3-osk 3′ UTR present.

The target in data set [3] is SNAP-tagged full-length kinesin heavy chain (Khc FL), Alexa Fluor 647-labeled (UniProt P17210). The data set is described as above. To be noted: other: single-molecule TIRF colocalisation and motility assay on microtubules.
Data set [4] concerns the target SNAP-tagged full-length kinesin heavy chain (Khc FL), Alexa Fluor 647-labeled (Drosophila) (UniProt P17210).

Sequence of SNAP-tagged full-length kinesin heavy chain (Khc FL), Alexa Fluor 647-labeled (Drosophila) (P17210 whole entry): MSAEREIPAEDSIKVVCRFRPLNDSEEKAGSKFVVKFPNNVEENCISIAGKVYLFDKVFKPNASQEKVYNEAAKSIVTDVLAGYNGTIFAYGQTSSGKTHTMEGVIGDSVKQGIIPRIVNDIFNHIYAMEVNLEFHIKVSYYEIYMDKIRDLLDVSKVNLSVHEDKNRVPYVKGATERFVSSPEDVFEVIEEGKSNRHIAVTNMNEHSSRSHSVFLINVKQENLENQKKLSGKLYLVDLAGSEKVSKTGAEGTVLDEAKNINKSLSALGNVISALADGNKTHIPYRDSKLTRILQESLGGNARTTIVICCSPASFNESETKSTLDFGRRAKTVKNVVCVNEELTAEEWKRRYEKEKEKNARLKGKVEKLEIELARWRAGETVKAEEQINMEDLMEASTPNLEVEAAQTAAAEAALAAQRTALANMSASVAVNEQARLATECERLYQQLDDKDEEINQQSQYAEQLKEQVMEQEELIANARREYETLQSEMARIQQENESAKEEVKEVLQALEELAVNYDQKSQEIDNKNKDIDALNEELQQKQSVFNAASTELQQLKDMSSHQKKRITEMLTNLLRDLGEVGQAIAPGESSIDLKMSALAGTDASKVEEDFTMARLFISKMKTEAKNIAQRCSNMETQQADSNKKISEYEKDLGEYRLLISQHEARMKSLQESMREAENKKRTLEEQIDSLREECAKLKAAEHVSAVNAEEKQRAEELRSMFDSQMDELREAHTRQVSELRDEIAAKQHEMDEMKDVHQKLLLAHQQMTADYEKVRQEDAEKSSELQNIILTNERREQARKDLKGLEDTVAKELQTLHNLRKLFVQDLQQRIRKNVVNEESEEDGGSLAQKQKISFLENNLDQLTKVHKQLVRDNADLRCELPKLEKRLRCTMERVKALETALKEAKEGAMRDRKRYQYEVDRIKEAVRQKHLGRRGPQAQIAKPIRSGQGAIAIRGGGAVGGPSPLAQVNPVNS
Sequence of Full-length kinesin heavy chain (Khc FL), unlabeled (Drosophila) (P17210 whole entry): as above
Sequence of SNAP-tagged full-length kinesin heavy chain (Khc FL), Alexa Fluor 647-labeled (P17210 whole entry): as above

On to “Full-length Tm1-I/C (Tm1 FL) coexpressed and copurified with Khc FL (natural protein)”, for which, in data set [1], the stoichiometry N was 2 Khc per Tm1.

As to “SNAP-Tm1 1-335, fluorescently labeled (domain or fragment)”, in data set [2], the percent of Khc signals colocalized with Tm1 signals came out at 71%.

For the substance “SNAP-tagged full-length Tm1-I/C (Tm1 FL), Alexa Fluor 488-labeled”, the “percent of Khc molecules bound to Tm1, corrected for the labeling efficiency of Tm1” value in data set [3] is ~95% of Khc molecules were bound to Tm1.

With “SNAP-tagged full-length Tm1-I/C (Tm1 FL), Alexa Fluor 488-labeled (natural protein)”, the mean velocity of microtubule-associated Khc FL complexes in the TIRF motility assay in the presence of Tm1 FL (0.240 µm s^−1 without Tm1) in data set [4] came out at 0.099 µm s^−1. The substance further gave a percent of Khc signals colocalizing with Tm1 signals in data set [2] of 44.6%.
